Reference: article PMC4864350, “Fluorogenic Substrates for In Situ Monitoring of Caspase-3 Activity in Live Cells” (PLoS ONE, 2016)
*: point of attachment. MethylRed = CN(C)c1ccc(/N=N/c2ccccc2C(=O)*)cc1; FAM = 5(6)-carboxyfluorescein; peptoid = not defined here; Ahx = NCCCCCC(=O)O

Experiments:
caspase-3 = target: T1, caspase-3 (Homo sapiens, UniProt P42574); experiment: Kinetic assay of fluorogenic substrates with caspase-3; type: biochemical; settings: substrate range 0.1–8 μM, enzyme 20 nM (1–9) or 15 nM (10–14), n = 3
T1 construct: purchased R&D systems, USA
T1 sequence (P42574 29-175 limits assumed): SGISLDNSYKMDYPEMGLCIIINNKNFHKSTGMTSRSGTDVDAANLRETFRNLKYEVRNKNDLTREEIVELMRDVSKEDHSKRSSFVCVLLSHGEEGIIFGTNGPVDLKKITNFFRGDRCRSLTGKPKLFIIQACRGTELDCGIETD
T1 sequence (P42574 176-277 limits assumed): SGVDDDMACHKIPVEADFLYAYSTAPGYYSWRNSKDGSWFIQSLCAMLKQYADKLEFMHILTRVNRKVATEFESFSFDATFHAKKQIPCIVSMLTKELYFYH
Procedure: The ability of […] (bearing MR as the quencher of choice) to act as s substrate for caspase-3, as well as caspase-7, was investigated by determining the catalytic efficiency (kcat/KM) for each substrate with both enzymes (Table 2).
Caspase-3 or caspase-7 (R&D systems, USA) was added to 100 μL of caspase assay buffer with substrates 1–14 at concentrations from 0.1 μM to 8 μM in a 96-well plate (n = 3) to give final enzyme concentration of 20 nM (1–9) or 15 nM (10–14). Fluorescence (λEx/Em 485/528 nm) was recorded on a Biotek Synergy HT Multi-Mode Microplate Reader every 2 min. Control samples had the same composition but no enzyme. The rate (μM/min) was calibrated using a 5(6)-carboxyfluorescein conversion factor (0.0055 μM/RFU) and data plotted against time (min). For initial cleavage rate (0–5 min), plots were fitted using linear regression analysis and the Michaelis-Menten data generated using GraphPad Prism 5.

caspase-7 = target: T2, caspase-7 (Homo sapiens, UniProt P55210); experiment: Caspase-7-mediated cleavage at high enzyme concentration analysed by MALDI-TOF MS; type: biochemical; settings: 10–20 μM substrate, 0.4 μM enzyme, 2 h, 37 °C
T2 construct: purchased R&D systems, USA
T2 sequence (P55210 24-198 limits assumed): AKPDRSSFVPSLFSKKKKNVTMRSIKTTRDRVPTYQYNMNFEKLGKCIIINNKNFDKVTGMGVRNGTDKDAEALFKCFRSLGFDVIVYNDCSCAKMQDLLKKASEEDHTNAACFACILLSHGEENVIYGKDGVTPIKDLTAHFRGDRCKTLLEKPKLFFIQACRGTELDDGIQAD
T2 sequence (P55210 207-303 limits assumed): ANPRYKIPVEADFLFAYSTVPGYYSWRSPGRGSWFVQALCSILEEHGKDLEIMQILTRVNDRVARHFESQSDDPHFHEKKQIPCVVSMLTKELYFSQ
Procedure: To confirm how specific 11, 12 and 14 were for caspase-3, these substrates were incubated with high enzyme concentrations (10–20 μM substrate, 0.4 μM enzyme) and the caspase-mediated cleavage analysed by MALDI-TOF MS.
S2 Fig. (A) MALDI-TOF MS spectra of substrate 11 (sequence Asp-Ala-Pro-Asp). (B) After incubation (20 µM) with Caspase-3 for 2 h. (C) After incubation (20 µM) with Caspase-7 for 2 h (detected as the PBS adduct.)
Caspase-3 or caspase-7 (R&D systems, USA) was added to 100 µL of caspase assay buffer (final enzyme concentration 0.4 µM) with the substrates at 10–20 µM. The samples were incubated in Eppendorf Thermomixer® Comfort shaking at 1200 rpm for 2h at 37 °C. MALDI -TOF mass spectra were recorded as described in Table S1 .
(1 picture or pasted object on this page, not shown here)

HEK293T cells = experiment: Live-cell confocal imaging of caspase-3 activation; type: cell-based; settings: 27 at 10 μM
Procedure: (§1) Fig 5 Confocal microscopy images of HEK293T and MCF-7 cells treated with substrate 27. Confocal microscopy images (objective HCX PL APO ×63/1.40–0.6 Oil CS) of HEK273T cells with substrate 27 (10 μM) without staurosporine (STS) (A) and with staurosporine (1 μM) (B) induced apoptosis (green fluorescence is from fluorescein “turned on” by caspase-3 cleavage of the substrate, blue is DAPI nuclear stain). (C) Staurosporine treated MCF-7 cells with substrate 27.
(§2) Cell culture was performed in a Heracell 150 incubator (Heraeus) and in a Herasafe KS 18 class II negative-flow cabinet (Heraeus). […] Fluorescence was evaluated as mean fluorescence intensity (MFI) and estimated <100 u.a. for untreated control cells (consistent values independently of staurosporine addition). Apoptotic cells treated with substrate 1 were used as a positive control to obtain the maximum of fluorescence signal. […] The data were analysed using the software Flowjo® 7.5.
(§3) For confocal microscopy, the cells were fixed with 4% paraformaldehyde in PBS and the nuclei stained with Hoechst-33342 (1% w/v in PBS). Cellular fluorescence of cells was analysed using an Inverted Leica DM IRB with filter I3 (450–490 nm) and a Leica SP5 Confocal (FITC and DAPI channel).

MCF-7 cells = experiment: Confocal imaging of staurosporine-treated cells lacking functional caspase-3; type: cell-based; settings: cells lack functional caspase-3 but express caspase-7
Procedure: as §1, §2, §3

substrate 27: FAM-Ahx-Asp-Leu-Pro-Asp-Lys(MR)-Ahx, conjugated to the cell penetrating peptoid at the C-terminus ({FAM-Ahx}-DLPDK(MethylRed)-{Ahx-peptoid}; reading uncertain; also: printed as FAM-Ahx-Asp-Leu-Pro-Asp-Lys(MR)-Ahx)
Km (caspase-3; fluorescence λEx/Em 485/528 nm, initial rate 0–5 min, Michaelis-Menten): 1.1 ± 0.3 µM
Kcat, Caspase-3 (caspase-3): 0.035 ± 0.013 s⁻¹
cleavage by caspase-7 (MALDI-TOF MS) (caspase-7): did not show any cleavage
fluorescence turn-on in apoptotic cells (confocal) (HEK293T cells; staurosporine 1 μM): only detected in the cytoplasm of apoptotic HEK293T cells
fluorescence in non-apoptotic cells (confocal) (HEK293T cells; without staurosporine): no increase in fluorescence observed
fluorescence turn-on in apoptotic MCF-7 cells (confocal) (MCF-7 cells): No fluorescence “turn-on” was observed
